Assay results from patent US20130115635A1 (VIB VZW, published 2013).

What was measured:
[1] = target: T1, Nb458-gaaEPEA (CA2945); assay: ELISA: Nb458-gaaEPEA coated at 0.1 or 0.01 µg/well, detected with biNbSyn2 alkaline phosphatase conjugate at dilutions 1/250 to 1/4000, OD405 after 60 minutes
T1 construct: also called Nb458 tagged with the gaaEPEA tag

[2] = target: T2, α-synuclein (UniProt P37840 1-140); assay: phage display panning on immobilised antigen
[3] = target: T2, α-synuclein; assay: 15N-1H HSQC NMR titration
[4] = target: T3, β-synuclein (UniProt Q16143 1-134); assay: phage display panning on immobilised antigen
T3 construct: also called beta-synuclein
T3 sequence (Q16143 whole entry): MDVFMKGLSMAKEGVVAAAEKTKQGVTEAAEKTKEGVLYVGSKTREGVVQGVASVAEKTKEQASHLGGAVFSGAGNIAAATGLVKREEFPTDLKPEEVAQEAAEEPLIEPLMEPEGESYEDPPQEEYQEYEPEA

[5] = target: T2, α-synuclein; assay: ITC, 293.1 K
[6] = target: T2, α-synuclein; assay: ITC, 298.1 K
[7] = target: T2, α-synuclein; assay: ITC, 303.1 K
[8] = target: T2, α-synuclein; assay: ITC, 310.1 K
[9] = target: Nb458-… (CA2944); assay: affinity capture on NbSyn2 sepharose, elution with 1 M NaCl, SDS-PAGE
[10] = target: T1, Nb458-gaaEPEA (CA2945); assay: as above
[11] = target: T4, Rev-[…] (HIV); assay: colocalisation in double-transfected HeLa cells, confocal microscopy
T4 construct: also called HIV-Rev-EPEA

T1 sequence (VHH, as listed by the source): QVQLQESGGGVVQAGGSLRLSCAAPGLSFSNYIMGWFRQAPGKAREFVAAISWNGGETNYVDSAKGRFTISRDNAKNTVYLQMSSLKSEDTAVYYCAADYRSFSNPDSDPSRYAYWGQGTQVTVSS

B1: biNbSyn2 alkaline phosphatase conjugate (VHH)
chain: QVQLVESGGGSVQAGGSLRLSCAASGIDSSSYCMGWFRQRPGKEREGVARINGLGGVKTAYADSVKDRFTISRDNAENTVYLQMNSLKPEDTAIYYCAAKFSPGYCGGSWSNFGYWGQGTQVTVSSGGGGSGGGSQVQLQESGGGSVQAGGSLRLSCAASGIDSSSYCMGWFRQRPGKEREGVARINGLGGVKTAYADSVKDRFTISRDNAENTVYLQMNSLKPEDTAIYYCAAKFSPGYCGGSWSNFGYWGQGTQVTVSSHHHHHH
notes: also called biNbSyn2-AP; bivalent NbSyn2
Question: Does B1 bind [1]?
Answer: Result: binds

B2: NbSyn1b (VHH)
VHH: DVQLVESGGGSVQAGGSLRLSCAPSGLNASSYCMGWFRQSPGKEREGVARINGNAGIKTAYADSVKDRFTLSRDNAKNTVYLQMNSLKAEDSAMYYCAAKSSPGYCGGNWDNFGYWGQGTQVTVSS
Question: Does B2 bind [2]?
Answer: Result: binds

B3: NbSyn1a (VHH)
VHH: EVQLVESGGGSVQAGGSLSLACAPSGLNASSYCMGWFRQSPGKEREGVARINGNAGIKTAYADSVKDRFTLSRDNAKNTVYLQMNSLKAEDSAIYFCAAKSSPGYCGGNWDNFGYWGQGTQVTVSS
Question: Does B3 bind [2]?
Answer: Result: binds

B4: NbSyn1c (VHH)
VHH: QVQLVESGGGSVQAGGSLRLSCAPLGLNASSYCMGWFRQSPGKEREGVARINGNAGIKTAYADSVKDRFTLSRDNAKNTVYLQMNSLKAEDSAMYYCAAKSSPGYCGGNWDNFGYWGQGTQVTVSS
Question: Does B4 bind [2]?
Answer: Result: binds

B5: Nb87 (VHH)
VHH: QVQLQESGGGSVQTGGSLRLSCVASGYSGYMAWFRQAPGKEREGIAAIYRGDKITYYAHSVQGRFTISQANAKNTVYLLMNSLKPEDTAIYYCAARRVVADSPLLSKTYAYWGQGTQVTVSS
Question: Does B5 bind [3]?
Answer: Result: binds

Question: Does B5 bind [4]?
Answer: Result: binds

B6: NbSyn2 (VHH)
VHH: QGQLVESGGGSVQAGGSLRLSCAASGIDSSSYCMGWFRQRPGKEREGVARINGLGGVKTAYADSVKDRFTISRDNAENTVYLQMNSLKPEDTAIYYCAAKFSPGYCGGSWSNFGYWGQGTQVTVSS
notes: also called His-tagged NbSyn2; NbSyn2-His6tagged
Question: Which results are given for B6?
Answer: Stoichiometry [5]: 0.99; Stoichiometry [6]: 0.93; Kd [7]: 99 nM; Stoichiometry [7]: 0.87; Kd [8]: 260 nM; Stoichiometry [8]: 0.91; binding result [9]: binds; binding result [10]: binds

B7: Nb85 (VHH)
VHH: QVQLQESGGGSVQAGGSLRLSCAASGLTYSNYCMGWFRQAPGKAREVVARISTRGIKTYYADSVNGRFTISRDNAKNMVYLQMNSLKPEDTAIYYCAAVIYPGYGDSCPWTTSVNYWGQGTQVTVSS
notes: also called NbSyn85
Question: Does B7 bind [4]?
Answer: Result: binds

B8: Nb86 (VHH)
VHH: QVQLQESGGGSVQAGGSLRLSCALSGYTFRGNRMAWFRQAPGKEREGVARINTGGVNTYVADSVKGRFTISQDNAKNTVYLQMNNLQPEDTAMYFCAADLTGWRPVGFSGYNYWGQGTQVTVSS
Question: Does B8 bind [4]?
Answer: Result: binds

B9: NbSyn1a-GFP (VHH)
VHH: EVQLVESGGGSVQAGGSLSLACAPSGLNASSYCMGWFRQSPGKEREGVARINGNAGIKTAYADSVKDRFTLSRDNAKNTVYLQMNSLKAEDSAIYFCAAKSSPGYCGGNWDNFGYWGQGTQVTVSS
Question: Does B9 bind [11]?
Answer: Result: binds

B10: NbSyn1a-mKO1 (VHH)
VHH: EVQLVESGGGSVQAGGSLSLACAPSGLNASSYCMGWFRQSPGKEREGVARINGNAGIKTAYADSVKDRFTLSRDNAKNTVYLQMNSLKAEDSAIYFCAAKSSPGYCGGNWDNFGYWGQGTQVTVSS
notes: not shown: mKO1, mKusabira orange fluorescent protein
Question: Does B10 bind [11]?
Answer: Result: binds
